The text below walks through data of PMC3117669 (The Biochemical journal, 2010).

The stoichiometry N is a count of units in the complex or per binding partner.

“And” between values parts separate entries of the source, which are not always exact repeats. Equal values may be shown once.

Series [1] concerns the target T1, V5-lipin 1b (469-924), immunopurified (mouse, UniProt Q91ZP3 469-924).
T1 sequence (looked up): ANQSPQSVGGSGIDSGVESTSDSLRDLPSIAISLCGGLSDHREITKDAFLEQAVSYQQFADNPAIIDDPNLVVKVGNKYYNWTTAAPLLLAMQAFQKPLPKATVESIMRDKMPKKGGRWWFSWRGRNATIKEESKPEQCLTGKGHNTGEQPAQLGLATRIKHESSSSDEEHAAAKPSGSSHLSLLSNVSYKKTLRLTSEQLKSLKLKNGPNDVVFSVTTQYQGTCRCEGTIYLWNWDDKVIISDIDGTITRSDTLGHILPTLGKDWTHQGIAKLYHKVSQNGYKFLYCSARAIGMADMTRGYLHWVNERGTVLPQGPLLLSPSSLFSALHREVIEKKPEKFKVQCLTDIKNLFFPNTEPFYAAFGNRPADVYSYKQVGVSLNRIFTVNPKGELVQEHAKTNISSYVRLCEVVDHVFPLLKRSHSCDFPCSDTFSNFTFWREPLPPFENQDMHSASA
The series can be described thus: pull-down.

The series “native gel or EMSA” concerns the molecule itself. Nature of the series: native gel or EMSA.
Another series addresses T2, GST-lipin 1b (1-641) (mouse, UniProt Q91ZP3 1-641).
T2 sequence (looked up): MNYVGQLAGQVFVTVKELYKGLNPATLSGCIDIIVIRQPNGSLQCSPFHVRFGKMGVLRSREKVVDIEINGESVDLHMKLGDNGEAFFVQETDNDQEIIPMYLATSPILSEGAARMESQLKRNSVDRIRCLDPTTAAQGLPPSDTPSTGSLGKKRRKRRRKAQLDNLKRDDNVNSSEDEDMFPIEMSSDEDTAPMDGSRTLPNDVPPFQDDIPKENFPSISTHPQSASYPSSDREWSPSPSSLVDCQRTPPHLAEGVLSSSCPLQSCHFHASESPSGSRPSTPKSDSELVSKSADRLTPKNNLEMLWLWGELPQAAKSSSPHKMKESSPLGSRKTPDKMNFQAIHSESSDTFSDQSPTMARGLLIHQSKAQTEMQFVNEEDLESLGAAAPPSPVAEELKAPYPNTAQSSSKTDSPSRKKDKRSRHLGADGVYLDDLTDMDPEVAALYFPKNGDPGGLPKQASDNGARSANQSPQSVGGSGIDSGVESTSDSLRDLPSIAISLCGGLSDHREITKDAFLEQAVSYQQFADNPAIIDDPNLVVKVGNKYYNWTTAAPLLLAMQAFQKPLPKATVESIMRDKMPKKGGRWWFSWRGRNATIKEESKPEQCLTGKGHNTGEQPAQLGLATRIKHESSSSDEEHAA
The series can be described thus: pull-down.

B1: GST-lipin 1b (642-924) (domain or fragment, mouse, UniProt Q91ZP3 642-924, looked up)
chain: AKPSGSSHLSLLSNVSYKKTLRLTSEQLKSLKLKNGPNDVVFSVTTQYQGTCRCEGTIYLWNWDDKVIISDIDGTITRSDTLGHILPTLGKDWTHQGIAKLYHKVSQNGYKFLYCSARAIGMADMTRGYLHWVNERGTVLPQGPLLLSPSSLFSALHREVIEKKPEKFKVQCLTDIKNLFFPNTEPFYAAFGNRPADVYSYKQVGVSLNRIFTVNPKGELVQEHAKTNISSYVRLCEVVDHVFPLLKRSHSCDFPCSDTFSNFTFWREPLPPFENQDMHSASA
For B1, in series [1], the binding result is listed as “binds”.

B2: lipin 1b-V5 (HEK293A) (natural protein, mouse, UniProt Q91ZP3 1-924, looked up)
chain: MNYVGQLAGQVFVTVKELYKGLNPATLSGCIDIIVIRQPNGSLQCSPFHVRFGKMGVLRSREKVVDIEINGESVDLHMKLGDNGEAFFVQETDNDQEIIPMYLATSPILSEGAARMESQLKRNSVDRIRCLDPTTAAQGLPPSDTPSTGSLGKKRRKRRRKAQLDNLKRDDNVNSSEDEDMFPIEMSSDEDTAPMDGSRTLPNDVPPFQDDIPKENFPSISTHPQSASYPSSDREWSPSPSSLVDCQRTPPHLAEGVLSSSCPLQSCHFHASESPSGSRPSTPKSDSELVSKSADRLTPKNNLEMLWLWGELPQAAKSSSPHKMKESSPLGSRKTPDKMNFQAIHSESSDTFSDQSPTMARGLLIHQSKAQTEMQFVNEEDLESLGAAAPPSPVAEELKAPYPNTAQSSSKTDSPSRKKDKRSRHLGADGVYLDDLTDMDPEVAALYFPKNGDPGGLPKQASDNGARSANQSPQSVGGSGIDSGVESTSDSLRDLPSIAISLCGGLSDHREITKDAFLEQAVSYQQFADNPAIIDDPNLVVKVGNKYYNWTTAAPLLLAMQAFQKPLPKATVESIMRDKMPKKGGRWWFSWRGRNATIKEESKPEQCLTGKGHNTGEQPAQLGLATRIKHESSSSDEEHAAAKPSGSSHLSLLSNVSYKKTLRLTSEQLKSLKLKNGPNDVVFSVTTQYQGTCRCEGTIYLWNWDDKVIISDIDGTITRSDTLGHILPTLGKDWTHQGIAKLYHKVSQNGYKFLYCSARAIGMADMTRGYLHWVNERGTVLPQGPLLLSPSSLFSALHREVIEKKPEKFKVQCLTDIKNLFFPNTEPFYAAFGNRPADVYSYKQVGVSLNRIFTVNPKGELVQEHAKTNISSYVRLCEVVDHVFPLLKRSHSCDFPCSDTFSNFTFWREPLPPFENQDMHSASA
Turning to B2, the “stoichiometry N” value in “native gel or EMSA” is 2 and 4.

B3: V5-lipin 1b (1-171), immunopurified (domain or fragment, mouse, UniProt Q91ZP3 1-171, looked up)
chain: MNYVGQLAGQVFVTVKELYKGLNPATLSGCIDIIVIRQPNGSLQCSPFHVRFGKMGVLRSREKVVDIEINGESVDLHMKLGDNGEAFFVQETDNDQEIIPMYLATSPILSEGAARMESQLKRNSVDRIRCLDPTTAAQGLPPSDTPSTGSLGKKRRKRRRKAQLDNLKRDD
In the case of B3, the binding result with GST-lipin 1b (1-641) is recorded as “binds”.
